To fix the notation:
B1: C34 IgG (antibody, V domains shown)
VH: EVQLVESGGGLVQPGRSLRLSCAASGFTFDDYAMHWVRQAPGKGLEWVSGISWNSGSIGYADSVKGRFTISRDNAKNSLYLQMNSLRAEDTALYYCAKDMGYSGNDDYYGMDVWGQGTTVTVSS
VL: DIQLTQSPSSLSASVGDRVTITCRASQRISSYLNWYQQKPGKAPKLLIYGAFSLQSGVPSRFSGSGSGTDFTLTISSLQPEDFATYYCQQSYRTLTRTFGQGTKVEIK
B2: C34 Fab (papain digestion of the mAb) (Fab, V domains shown)
VH: B1 VH
VL: B1 VL
B3: C37 Fab (papain digestion of the mAb) (Fab, V domains shown)
VH: QVQLQESGPGLVKPSETLSLTCTVSGGSIGSSSYYWGWIRQPPGKGLQWIGSFHYSGTTYYNPSLKSRVTISVDTSKNHFSLKLSSVTAADTAVYYCASRQNWNDGYFDYWGQGTLVTVSS
VL: DIQMTQSPATLSLSPGERATLFCRASQSVSSSLAWYQQKPGQAPRLLIYDASNRATGIPARFSGSGSGTDFTLTISSLEPEDFAVYYCQQRGNWPPITFGQGTRLDTK
B4: C37 IgG (antibody, V domains shown)
VH: B3 VH
VL: B3 VL

For the experiment, the target named is infectious CHIKV virion particle with E3 associated (strain CHIKV-181/25) (Chikungunya virus) (UniProt Q8JUX5).
Sequence of infectious CHIKV virion particle with E3 associated (strain CHIKV-181/25) (Chikungunya virus) (Q8JUX5 whole entry, looked up): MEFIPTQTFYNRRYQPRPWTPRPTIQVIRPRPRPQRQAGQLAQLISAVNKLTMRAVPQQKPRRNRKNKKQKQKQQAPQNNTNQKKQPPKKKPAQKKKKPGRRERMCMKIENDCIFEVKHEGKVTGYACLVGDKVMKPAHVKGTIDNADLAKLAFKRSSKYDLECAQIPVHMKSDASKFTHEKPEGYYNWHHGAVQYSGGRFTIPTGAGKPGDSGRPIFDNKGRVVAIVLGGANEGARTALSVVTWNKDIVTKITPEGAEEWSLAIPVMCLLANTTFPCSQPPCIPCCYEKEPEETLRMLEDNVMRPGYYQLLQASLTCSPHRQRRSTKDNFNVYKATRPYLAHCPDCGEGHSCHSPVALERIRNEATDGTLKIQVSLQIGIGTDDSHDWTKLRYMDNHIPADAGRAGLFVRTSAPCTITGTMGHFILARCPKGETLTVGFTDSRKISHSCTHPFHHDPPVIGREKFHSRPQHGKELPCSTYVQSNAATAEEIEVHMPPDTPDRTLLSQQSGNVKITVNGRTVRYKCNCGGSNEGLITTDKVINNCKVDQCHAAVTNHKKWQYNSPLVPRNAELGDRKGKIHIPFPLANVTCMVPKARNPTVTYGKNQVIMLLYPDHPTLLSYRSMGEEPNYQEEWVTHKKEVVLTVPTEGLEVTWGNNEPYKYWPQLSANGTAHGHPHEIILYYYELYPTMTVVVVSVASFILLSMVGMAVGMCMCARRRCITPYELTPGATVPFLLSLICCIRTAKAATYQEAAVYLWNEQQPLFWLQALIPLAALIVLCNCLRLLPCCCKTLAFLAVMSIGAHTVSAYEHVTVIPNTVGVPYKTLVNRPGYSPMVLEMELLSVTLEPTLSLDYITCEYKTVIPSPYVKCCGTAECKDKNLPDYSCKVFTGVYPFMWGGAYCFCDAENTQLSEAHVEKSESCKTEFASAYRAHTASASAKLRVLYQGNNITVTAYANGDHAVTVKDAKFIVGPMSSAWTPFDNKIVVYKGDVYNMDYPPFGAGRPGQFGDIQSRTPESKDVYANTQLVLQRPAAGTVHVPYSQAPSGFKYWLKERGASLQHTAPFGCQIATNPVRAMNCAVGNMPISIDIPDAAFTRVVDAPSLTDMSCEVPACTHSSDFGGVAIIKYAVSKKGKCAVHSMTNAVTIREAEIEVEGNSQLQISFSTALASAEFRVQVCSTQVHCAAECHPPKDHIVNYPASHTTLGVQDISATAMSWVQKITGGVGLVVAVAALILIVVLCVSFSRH
In turn, B1 displayed a PRNT50, post-attachment neutralisation assay on Vero cells of 48.7 ng/mL.

B2 registered a PRNT50, post-attachment neutralisation assay on Vero cells of 97 ng/mL.

In the case of B3, the PRNT50, post-attachment neutralisation assay on Vero cells is 727 ng/mL.

The molecule B4 came in with a PRNT50, post-attachment neutralisation assay on Vero cells of 164 ng/mL.

(Values after article PMC12583524.)
